According to the supplement of paper PMC9170038:

Tested on: MS2 coat protein
Assay: apparent KD of MS2 coat protein; designed switch direction (-1 OFF switch, 1 ON switch): -1; higher = weaker reporter binding
Method in brief: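 Designed RNA switches with common flanks were transcribed on Illumina chips by stalled E. coli RNA polymerase and titrated with SNAP-549-labelled MS2 coat protein, from 0.7 or 1.5 nM doubling to 3 µM, in Tris-HCl pH 7.5 buffer with KCl, MgCl2, BSA, DTT, tRNA and Tween-20. Steps lasted 0.8–1.5 h (lowest) to 10–20 min (highest). Titrations ran without input, with 200 uM small-molecule ligand, or with an oligonucleotide input. Normalised cluster fluorescence was curve-fitted, and apparent KD is the per-design median over clusters.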

[1] = input ligand: microRNA oligo, concentration not stated
[2] = Eterna round: R95, input ligand: FMN 200 uM
[3] = Eterna round: R95, input ligand: microRNA oligo, concentration not stated
[4] = Eterna round: R95, input ligand: none

Row | Sequence | apparent KD of MS2 coat protein (input ligand: FMN 200 uM) [nM] | apparent KD of MS2 coat protein [1] [nM] | apparent KD of MS2 coat protein (input ligand: none) [nM] | apparent KD of MS2 coat protein [2] [nM] | apparent KD of MS2 coat protein [3] [nM] | apparent KD of MS2 coat protein [4] [nM]
1 | AAUGUCUGAGGAUAUCGUUUUUUGUACAUGAGGAUCACCCAUGUCCAAUUUUGUAUAUUACGAGAAGGCAGUGGAA [JR_E5_Sub089] (Eterna round: R96, puzzle: Exclusion 5) | 23.9 | 10.7 | 15 | – | – | –
2 | CCUUAGCGAGGAUAUACAUGAGGAUCACCCAUGUGAUCCUAAGGCUGAUCAAGCCUAUGUAGAAGGCGCAAAUC [salish99_ex3_r4_003] (Eterna round: R97, puzzle: Exclusion 3) | 180 | – | 442 | – | – | –
3 | ACCAUUUUACGAUAUGUGCACAUGAGGAUCACCCAUGUUCCGAUAAACAUUUGAAGUACAGCAGGCUGCUCGAUCUG [Eternabot (L2) Solution 45] (Eterna round: R97, puzzle: Sensor, turn-off variant 1) | 94.2 | – | 87.4 | – | – | –
4 | CAUGGAACGUAGGAUAUCUCGCAGCCCGACUGCAGAGAAGGACGUACAUGAGGAUCACCCAUGUAUGAUCCAAA [Vexeoren] (puzzle: Exclusion 6) | – | – | – | 29.2 | 18.1 | 23.3
5 | ACAAGAGCGGAAGGAUAUUGUACAUGAGGAUCACCCAUGUAAUAAAUGAGGAUCACGGAUGUAGUCAAGAAGGUCCGGAUAAGA [Ostracism 1 - Jieux - Exclusion NG 2] (Eterna round: R96, puzzle: Exclusion NG 2) | 47.7 | 60.8 | 50.6 | – | – | –
6 | GUCCUGGCUUUUCACAGGCACAUGAGGAUCACCCAUGUCGUGGGUAGAUCCCUCCCUGGGAAAUCUGCUCGUCUUAU [Cac Sensor turn off v1 sub12] (Eterna round: R97, puzzle: Sensor, turn-off variant 1) | 78.9 | – | 84.6 | – | – | –
7 | CGGACACCAGUAGGAUAUGUAGGAUAUGUUGUUGAGGAUCACCCAACAAAUUAAACGACAGAAGGACAGAAGGACUGUUCUCCU [pwkr exNG2 2xFMN 1xF5.2] (Eterna round: R96, puzzle: Exclusion NG 2) | 18.6 | 14.5 | 24.7 | – | – | –
8 | GCCCAGUUAGGAUAUACAUGUCACGUCCUAACGGUCGAAGGACAUGAGGAUCACCCAUGUAGAAGGGACCGGCA [Onraonbe] (Eterna round: R97, puzzle: Exclusion 2) | 17.7 | – | 21.2 | – | – | –
9 | CACGGCUUAGGAUAUACAUGAGGAUCACCCAUGUGGGAAAGCCAAGGCGUGGUAAAGUGUAGAAGGAAGAAGGA [Solaedra] (puzzle: Exclusion 3) | – | – | – | – | 12.5 | –
10 | CUGUGCACGCUGCGGUCCUACAUGAGGAUCACCCAUGUGGUCUGGUGGCGUGGGUCGCCGGACUUGGCUCGUCUUGA [salish99_S_TOV1_R5_023] (Eterna round: R97, puzzle: Sensor, turn-off variant 1) | 19.1 | – | 19.2 | – | – | –
11 | UAUAUAUAGUAAGGAUAUGUAAUUCUUUUAUAAACAGAAGGUACUGACAUGAGGAUCACCCAUGUUUUAGUGUGGGCAUGUAGA [JMF's solution 34] (Eterna round: R96, puzzle: Exclusion NG 1) | – | 53.1 | – | – | – | –
12 | AUAUCGUGAGGAUAUCCAAUAUAUGACAUGAGGAUCACCCAUGUUUCCACUCGUACCUCCGGAGAAGGCACAGUUA [Ex5 #72] (Eterna round: R97, puzzle: Exclusion 5) | 23.9 | – | 24.5 | – | – | –
13 | GUUUCACAUGAGGAUCACCCAUGUGAGGAUAUGGAUUCGCUGGCCGUAGCCAGUGGAUCCAGAAGGCGCGUGAU [JL-ex1-4.21] (Eterna round: R97, puzzle: Exclusion 1) | 60.5 | – | 61.7 | – | – | –
14 | CCCGAUGGAUAGGAUAUCCGGCAAGUAUGCUAUGGAGAAGGGUUCACAUGAGGAUCACCCAUGUGGGUUAAACG [Eternabot (L1) Solution 74] (Eterna round: R97, puzzle: Exclusion 6) | 22 | – | 19.3 | – | – | –
15 | UUAAUUAAUGUCAGGAUAUCUAGAGCCUCGGCUCUAGAGAAGGGACAUGAGGAUCACCCAUGUCACUCUUAAUU [BmEx4/3-C2] (Eterna round: R97, puzzle: Brourd's mod of Exclusion 4) | 19.5 | – | 18.7 | – | – | –
16 | UAGUUAUUCACAGGAUAUCGCCUCUUAUUACAUGAGGAUCACCCAUGUUUAGUUAGUUACAUGUUCGAGAAGGGUGUAGUUGUU [JR_ExcNG2_Sub043] (Eterna round: R96, puzzle: Exclusion NG 2) | – | 290 | – | – | – | –
17 | AAAACACAUGAGGAUCACCCAUGUGAGGAUAUGUCCAUAUUCGGCAAAUCGGAUAUGGACAGAAGGCACAUAAA [JR_Exclusion1_Sub014] (puzzle: Exclusion 1) | – | – | – | 54.7 | 48.9 | 39.7
18 | AAGUAGACGGUGAGGAUAUAGGUCGAAUGACCGAUUUAGAAGGCACAUGAGGAUCACCCAUGUGGGUAACGUCG [Brourd's EX4 #30] (Eterna round: R97, puzzle: Brourd's mod of Exclusion 4) | 24.1 | – | 27.5 | – | – | –
19 | UUCAUGUUAGGAUAUUCCGCCACAGAGAAAGACUGUGGAAUGAAGAAGGGACAUGAGGAUCACCCAUGUUCCAA [EX4 A.5] (Eterna round: R97, puzzle: Exclusion 4) | 14.2 | – | 14.3 | – | – | –
20 | ACAUGAGGAUCACCCAUGUGAAACCAAUGGCUGACUUUGAGCUAGGAUAUUCGUGCAUAUCAAACGAAGAAGGAGCAUUACUGG [Deportation 97 - Jieux - Exclusion NG 3] (Eterna round: R96, puzzle: Exclusion NG 3) | 36.9 | 31.5 | 34.8 | – | – | –
21 | CGGUGUAAGUCAGGAUAUGAGCGCAACUGACGAUCAGAAGGGACACAUGAGGAUCACCCAUGUGAUUUCUCAAUAUUAUACAUC [Prohibition 90 - Jieux - Exclusion NG 1] (Eterna round: R96, puzzle: Exclusion NG 1) | 30.7 | 14.4 | 23.1 | – | – | –
22 | AAAAGGCGAGGAUAUACAGACCUCGGAAAAUCAAAGCAGAGACAUGAGGAUCACCCAUGUAGAAGGCGCAACAA [Geerbiorer] (Eterna round: R97, puzzle: Exclusion 2) | 20.8 | – | 15.9 | – | – | –
23 | GAUCCUUAAGUCAGGAUAUCAAGCAAACUCAAAAUUGAGAAGGGACAUGAGGAUCACCCAUGUCACCGAAAUAA [Reteisus] (puzzle: Brourd's mod of Exclusion 4) | – | – | – | 10.1 | 8.98 | 10.6
24 | GCAGCAUAGUUUACUAACUGUUACAUGAGGAUCACCCAUGUCUAGGAUAUGGUCUGGAUUACAGGCCAGAAGGAGAAAAGCUGC [Eli exng3 - 036] (Eterna round: R96, puzzle: Exclusion NG 3) | 15.3 | 13 | 16.8 | – | – | –
25 | GAGGCAUGCUGAGGUCCACACAUGAGGAUCACCCAUGUAAUGACAAGCUUUUUCCUCGUCUUAUCGCUAUCGCGUUC [Dilaenla] (puzzle: Sensor v3, turn-off variant 1) | – | – | – | 15.5 | 28.4 | 15
